Experiments:
[1] = target: T1, GB1-SRSF1 RRM2 WT (pseudo-RRM) (human, UniProt Q07955 107-203); assay: NMR
[2] = target: T1, GB1-SRSF1 RRM2 WT (pseudo-RRM); assay: ITC
GB1-SRSF1 RRM2 R142A = GB1-SRSF1 RRM2 R142A (human, UniProt Q07955 107-203, R142A); assay: ITC
Chain of GB1-SRSF1 RRM2 R142A (Q07955 107-203 R142A): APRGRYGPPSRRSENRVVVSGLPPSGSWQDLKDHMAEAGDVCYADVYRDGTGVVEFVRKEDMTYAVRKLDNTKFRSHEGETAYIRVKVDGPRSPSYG

T1 sequence (Q07955 107-203): as the sequence (Q07955 107-203 R142A) above, with A36R counted along it

B1: 5'-UGAAGGAC-3' RNA (ssRNA)
RNA: UGAAGGAC
[1]
  binding result: binds

B2: 5'-AGGAC-3' RNA (ssRNA)
RNA: AGGAC
[2]
  Kd: 1 µM
GB1-SRSF1 RRM2 R142A
  Kd: 7 µM

Reference: PMC5291263
